# Test results from US20190142971A1, “FORMULATION AND DELIVERY OF MODIFIED NUCLEOSIDE, NUCLEOTIDE, AND NUCLEIC ACID COMPOSITIONS” (ModernaTX, Inc., priority 2013, published 2019).
# B1: EPO: modified mRNA encoding human erythropoietin, SEQ ID NO: 7, Cap1, fully modified with 5-methylcytosine and pseudouridine; LNP NPA-060-1 in Examples 17-22 (nucleic acid)
# chain: GGGAAAUAAGAGAGAAAAGAAGAGUAAGAAGAAAUAUAAGAGCCACCAUGGGAGUGCACGAGUGUCCCGCGUGGUUGUGGUUGCUGCUGUCGCUCUUGAGCCUCCCACUGGGACUGCCUGUGCUGGGGGCACCACCCAGAUUGAUCUGCGACUCACGGGUACUUGAGAGGUACCUUCUUGAAGCCAAAGAAGCCGAAAACAUCACAACCGGAUGCGCCGAGCACUGCUCCCUCAAUGAGAACAUUACUGUACCGGAUACAAAGGUCAAUUUCUAUGCAUGGAAGAGAAUGGAAGUAGGACAGCAGGCCGUCGAAGUGUGGCAGGGGCUCGCGCUUUUGUCGGAGGCGGUGUUGCGGGGUCAGGCCCUCCUCGUCAACUCAUCACAGCCGUGGGAGCCCCUCCAACUUCAUGUCGAUAAAGCGGUGUCGGGGCUCCGCAGCUUGACGACGUUGCUUCGGGCUCUGGGCGCACAAAAGGAGGCUAUUUCGCCGCCUGACGCGGCCUCCGCGGCACCCCUCCGAACGAUCACCGCGGACACGUUUAGGAAGCUUUUUAGAGUGUACAGCAAUUUCCUCCGCGGAAAGCUGAAAUUGUAUACUGGUGAAGCGUGUAGGACAGGGGAUCGCUGAUAAGCUGCCUUCUGCGGGGCUUGCCUUCUGGCCAUGCCCUUCUUCUCUCCCUUGCACCUGUACCUCUUGGUCUUUGAAUAAAGCCUGAGUAGGAAG
# modifications: Cap1, 5-methylcytosine, pseudouridine
# Columns and labels:
# Type in all cases: in vivo
# [1] = test system: non-human primates (cynomolgus monkey); experiment: Example 22: NHP serum chemistry ALT and AST (Tables 45, 46)
# Sprague-Dawley rats = experiment: Example 34: EPO mRNA in buffer IM in rats, serum EPO (Table 59); settings: 13 hours post injection
# mice [2] = experiment: Example 42A: G-CSF/EPO mRNA in buffer IM in mice, serum protein at 13 hours (Table 67); settings: EPO group: human EPO in mouse serum, IM 100 ug
# Description: The mice were bled at 13 hours after the injection to determine the concentration of the human polypeptide in serum in pg/mL (G-CSF groups measured human G-CSF in mouse serum and EPO groups measured human EPO in mouse serum).
# mice [3] = experiment: Example 65: G-CSF/EPO mRNA in saline in mice, serum protein at 13 hours (Table 97); settings: EPO group; 100 ug, 100 μl/mouse, F. buffer, 13 hours after injection
# Description: The mice were bled at 13 hours after the injection to determine the concentration of the human polypeptide in serum in pg/mL. (G-CSF groups measured human G-CSF in mouse serum and EPO groups measured human EPO in mouse serum).
# [4] = 0.005 mg/kg, 14 days, Female NHP
# [5] = 0.005 mg/kg, Pre-dose, Female NHP
# [6] = 0.005 mg/kg, Pre-dose, Male NHP
# [7] = 0.05 mg/kg, 14 days, Female NHP
# [8] = 0.05 mg/kg, Pre-dose, Female NHP
# [9] = 0.5 mg/kg, Pre-dose, Female NHP
molecule,measurement,setting,value
B1,ALT,[1]; [4],51 U/L
same,AST,[1]; [4],54 U/L
same,ALT,"[1]; 0.005 mg/kg, 14 days, Male NHP",43 U/L
same,AST,"[1]; 0.005 mg/kg, 14 days, Male NHP",35 U/L
same,ALT,[1]; [5],45 U/L
same,AST,[1]; [5],40 U/L
same,ALT,[1]; [6],45 U/L
same,AST,[1]; [6],39 U/L
same,ALT,"[1]; 0.05 mg/kg, 2 days, Female NHP",254 U/L
same,AST,"[1]; 0.05 mg/kg, 2 days, Female NHP",80 U/L
same,ALT,"[1]; 0.05 mg/kg, 2 days, Male NHP",95 U/L
same,AST,"[1]; 0.05 mg/kg, 2 days, Male NHP",61 U/L
same,ALT,"[1]; 0.05 mg/kg, 4 days, Female NHP",200 U/L
same,AST,"[1]; 0.05 mg/kg, 4 days, Female NHP",94 U/L
same,ALT,"[1]; 0.05 mg/kg, 4 days, Male NHP",70 U/L
same,AST,"[1]; 0.05 mg/kg, 4 days, Male NHP",48 U/L
same,ALT,"[1]; 0.05 mg/kg, 7 days, Female NHP",187 U/L
same,AST,"[1]; 0.05 mg/kg, 7 days, Female NHP",78 U/L
same,ALT,"[1]; 0.05 mg/kg, 7 days, Male NHP",64 U/L
same,AST,"[1]; 0.05 mg/kg, 7 days, Male NHP",53 U/L
same,ALT,[1]; [7],216 U/L
same,AST,[1]; [7],47 U/L
same,ALT,"[1]; 0.05 mg/kg, 14 days, Male NHP",29 U/L
same,AST,"[1]; 0.05 mg/kg, 14 days, Male NHP",32 U/L
same,ALT,[1]; [8],160 U/L
same,AST,[1]; [8],58 U/L
same,ALT,"[1]; 0.05 mg/kg, Pre-dose, Male NHP",56 U/L
same,AST,"[1]; 0.05 mg/kg, Pre-dose, Male NHP",74 U/L
same,ALT,"[1]; 0.5 mg/kg, 2 days, Female NHP",77 U/L
same,AST,"[1]; 0.5 mg/kg, 2 days, Female NHP",141 U/L
same,ALT,"[1]; 0.5 mg/kg, 2 days, Male NHP",98 U/L
same,AST,"[1]; 0.5 mg/kg, 2 days, Male NHP",125 U/L
same,ALT,"[1]; 0.5 mg/kg, 4 days, Female NHP",87 U/L
same,AST,"[1]; 0.5 mg/kg, 4 days, Female NHP",60 U/L
same,ALT,"[1]; 0.5 mg/kg, 4 days, Male NHP",94 U/L
same,AST,"[1]; 0.5 mg/kg, 4 days, Male NHP",71 U/L
same,ALT,"[1]; 0.5 mg/kg, 7 days, Female NHP",59 U/L
same,AST,"[1]; 0.5 mg/kg, 7 days, Female NHP",47 U/L
same,ALT,"[1]; 0.5 mg/kg, 7 days, Male NHP",60 U/L
same,AST,"[1]; 0.5 mg/kg, 7 days, Male NHP",56 U/L
same,ALT,"[1]; 0.5 mg/kg, 14 days, Female NHP",44 U/L
same,AST,"[1]; 0.5 mg/kg, 14 days, Female NHP",44 U/L
same,ALT,"[1]; 0.5 mg/kg, 14 days, Male NHP",88 U/L
same,AST,"[1]; 0.5 mg/kg, 14 days, Male NHP",82 U/L
same,ALT,[1]; [9],31 U/L
same,AST,[1]; [9],20 U/L
same,ALT,"[1]; 0.5 mg/kg, Pre-dose, Male NHP",50 U/L
same,AST,"[1]; 0.5 mg/kg, Pre-dose, Male NHP",59 U/L
same,"human EPO in serum, Avg.",Sprague-Dawley rats; dose 1 μg,28.7 pg/mL
same,"human EPO in serum, Geometric-mean",Sprague-Dawley rats; dose 1 μg,25.4 pg/mL
same,"human EPO in serum, Avg.",Sprague-Dawley rats; dose 10 μg,46.3 pg/mL
same,"human EPO in serum, Geometric-mean",Sprague-Dawley rats; dose 10 μg,31.2 pg/mL
same,"human EPO in serum, Avg.",Sprague-Dawley rats; dose 50 μg,101.5 pg/mL
same,"human EPO in serum, Geometric-mean",Sprague-Dawley rats; dose 50 μg,85.4 pg/mL
same,"human EPO in serum, Avg.",Sprague-Dawley rats; dose 100 μg,79.4 pg/mL
same,"human EPO in serum, Geometric-mean",Sprague-Dawley rats; dose 100 μg,66.9 pg/mL
same,"human EPO in serum, Avg.",Sprague-Dawley rats; dose 150 μg,67.7 pg/mL
same,"human EPO in serum, Geometric-mean",Sprague-Dawley rats; dose 150 μg,67.1 pg/mL
same,"Average Protein Product, serum",mice [2],191.5 pg/mL
same,"Average Protein Product, serum (human EPO)",mice [3],72.03 pg/mL
